Article PMC4731787, “Structural basis for the recognition of two consecutive mutually interacting DPF motifs by the SGIP1 μ homology domain” (Scientific Reports, 2016)
Values belong to the molecule of their own block, whether it stands above or below them. Where no end group is shown, it is not given here. GST = glutathione S-transferase fusion tag

B3: appendage domain of human α-adaptin (residues 711 to 955) (domain or fragment, UniProt O95782-2 711-955, looked up)
chain: IGPPIPEADELLNKFVCKNNGVLFENQLLQIGVKSEFRQNLGRMYLFYGNKTSVQFQNFSPTVVHPGDLQTQLAVQTKRVAAQVDGGAQVQQVLNIECLRDFLTPPLLSVRFRYGGAPQALTLKLPVTINKFFQPTEMAAQDFFQRWKQLSLPQQEAQKIFKANHPMDAEVTKAKLLGFGSALLDNVDPNPENFVGAGIIQTKALQVGCLLRLEPNAQAQMYRLTLRTSKEPVSRHLCELLAQQF
notes: also called α-adaptin appendage domain; source: E. coli, purified in the same manner as for the SGIP1 μHD

Tests used:
SGIP1 µHD A565E = assay: ITC of Eps15 fragments with the SGIP1 μHD A565E mutant; assay type: binding, human
Description: (§1) For the majority of the ITC experiments, the SGIP1 μHD, its mutants, or the FCHo1 μHD, in 50 mM Tris-HCl buffer (pH 8.0) containing 50 mM NaCl, was loaded in the sample cell, in a volume of 1.42 ml, and titrated with various Eps15-derived fragments or peptides in the same buffer, with an initial 5 μl injection and subsequent 10 μl injections, for a total of 25 injections. The titrations were performed while the samples were stirred at 310 r.p.m. at 25 °C. Each injection was followed by an interval of 4 min, to allow baseline stabilization. For the other ITC experiments indicated in Supplementary Table 2, the Eps15-derived fragments or peptides in the sample cell were titrated with the SGIP1 or FCHo1 μHD. All ITC experiments were performed on a VP-ITC microcalorimeter (MicroCal, LLC) and repeated twice, and the data were processed with the program NITPIC[42]. The two data sets from each ITC experiment were analyzed by global weighted least-squares fitting with the program SEDPHAT[43]. Figures for the ITC data were created with the program GUSSI (http://biophysics.swmed.edu/MBR/software.html). To obtain the values of the traditional stoichiometric parameter N in our ITC data analyses (Supplementary Table 2), we used the values of the parameters of the incompetent fractions of proteins and ligands. […] The values of the incompetent fractions are between 0 and 1, whereas the other parameter affecting the traditional parameter N, the number of sites, was fixed as 1 and 2, for the single- and two-site models, respectively. Thus, in the two-site model, the values of N for the first and second sites are identical in our ITC data analyses (Supplementary Table 2).

[1] = target: T1, SGIP1 μHD (residues 552 to 828) (Homo sapiens, UniProt Q9BQI5); assay: ITC of Eps15 fragments with the SGIP1 μHD; assay type: binding
T1 construct: the SGIP1 μHD (residues 552 to 828); GST (N, cleaved yes); made in house; host or cells: Escherichia coli BL21-Gold (DE3) or Rosetta2
T1 sequence (Q9BQI5 552-828): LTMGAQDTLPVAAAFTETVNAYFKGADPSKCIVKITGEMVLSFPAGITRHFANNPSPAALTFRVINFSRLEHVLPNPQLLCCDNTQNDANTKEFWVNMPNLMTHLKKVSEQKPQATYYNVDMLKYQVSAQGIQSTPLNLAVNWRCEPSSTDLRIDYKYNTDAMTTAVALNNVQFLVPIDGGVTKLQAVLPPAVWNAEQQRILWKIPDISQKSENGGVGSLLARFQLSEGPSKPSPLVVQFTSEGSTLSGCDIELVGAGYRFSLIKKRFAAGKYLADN
Procedure, shortened: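 Isothermal titration calorimetry was run at 25 °C in 50 mM Tris-HCl pH 8.0, 50 mM NaCl, mostly titrating Eps15 fragments or peptides into μHD protein in the cell (25 injections, 4 min apart). Some runs reversed the titration direction. Duplicate runs were globally fitted to single- or two-site models, with N derived from incompetent-fraction parameters.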

SGIP1 µHD A563E = assay: ITC of Eps15 fragments with the SGIP1 μHD A563E mutant; assay type: binding, human
Description: as §1

[2] = target: α-adaptin appendage domain (residues 711 to 955); assay: ITC of Eps15 fragments with the α-adaptin appendage domain; assay type: binding, human
[3] = target: B3; assay: ITC; VP-ITC; α-adaptin appendage domain with Eps15 fragments; which of the two was in the cell is not told in the text (Supplementary Table 2); details: both partners purified
Eps15-530–896 = target: T2, Eps15-530–896 (human, UniProt P42566-1 530-896); assay: SEC; analytical gel filtration on Superdex 200, 50 mM Tris-HCl pH 8.0, 50 mM NaCl, 5 mM DTT, 5% glycerol; fractions on SDS-PAGE; Eps15-530–896 and μHD mixed 1:2.4; Eps15-530–896, μHD and appendage domain mixed 1:3:6; details: both partners purified
T2 construct: also called C-terminal fragment of human Eps15; source: E. coli, purified (Ni Sepharose, thrombin, Glutathione Sepharose, 3C protease, Superdex 200); not shown: GST, N-terminal, cleaved; His tag, C-terminal, cleaved
T2 sequence (looked up): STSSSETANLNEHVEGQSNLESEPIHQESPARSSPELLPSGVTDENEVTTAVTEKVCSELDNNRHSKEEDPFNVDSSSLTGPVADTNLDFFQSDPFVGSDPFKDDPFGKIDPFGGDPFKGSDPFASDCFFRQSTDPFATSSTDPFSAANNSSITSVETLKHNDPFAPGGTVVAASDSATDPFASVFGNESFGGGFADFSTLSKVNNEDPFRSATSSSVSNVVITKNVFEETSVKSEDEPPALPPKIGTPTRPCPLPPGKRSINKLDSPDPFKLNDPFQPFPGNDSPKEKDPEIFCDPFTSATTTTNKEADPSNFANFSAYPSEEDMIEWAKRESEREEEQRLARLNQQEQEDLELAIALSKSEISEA

[4] = 25 °C, 50 mM Tris-HCl pH 8.0, 50 mM NaCl, mutant μHD in cell titrated with fragment, two runs
[5] = 25 °C, μHD in cell titrated with fragment, single-site model

Molecule: GST-Eps15-628–654: GST-tagged Eps15 fragment, residues 628–654, 5 DPF motifs ({GST}-SDPFKDDPFGKIDPFGGDPFKGSDPFA)
- binding to SGIP1 μHD with Ala565 replaced by Glu (in words) (SGIP1 µHD A565E): abolished the binding
- Kd (SGIP1 µHD A565E; [4]): below detection limit
- -TΔS [1, 5]: -1.785 kcal/mol
- ΔG [1, 5]: -8.175 kcal/mol
- ΔH ([1]; 25 °C, μHD in cell titrated with fragment, single-site model, ± 68.3% confidence interval): -6.39 ± 0.179 kcal/mol
- binding to SGIP1 μHD with Ala563 replaced by Glu (in words) (SGIP1 µHD A563E): abolished the binding
- Kd (SGIP1 µHD A563E; [4]): below detection limit

Molecule: B3
- binding result (Eps15-530–896): binds

Second part, led by results:

- Kd for the α-adaptin appendage domain (in words) [2]: in the nanomolar range
- Kd ([2]; 25 °C, appendage domain titrated with Eps15 fragment, single-site model, global fit of two runs, ± 68.3% confidence interval): 690 ± 80 nM
- binding result [3]: binds
- binding to the SGIP1 μHD (in words) [1]: could not detect the clear binding
- Kd ([1]; 25 °C, 50 mM Tris-HCl pH 8.0, 50 mM NaCl, μHD in sample cell titrated with Eps15 fragment, single-site model, global fit of two runs, ± 68.3% confidence interval): below detection limit
B1: Eps15-661–790 (domain or fragment, human, UniProt P42566-1 661-790, looked up)
chain: QSTDPFATSSTDPFSAANNSSITSVETLKHNDPFAPGGTVVAASDSATDPFASVFGNESFGGGFADFSTLSKVNNEDPFRSATSSSVSNVVITKNVFEETSVKSEDEPPALPPKIGTPTRPCPLPPGKRS
notes: Eps15, human, residues 661-790 (limits from the fragment's name); source: E. coli, purified in the same manner as for the SGIP1 μHD
- -TΔS ([2]; 25 °C, single-site model): 20.041 kcal/mol
- ΔG ([2]; 25 °C, single-site model): -8.401 kcal/mol
- ΔH ([2]; 25 °C, single-site model, ± 68.3% confidence interval): -28.442 ± 0.319 kcal/mol

- binding result [3]: binds
B2: Eps15-661–720 (domain or fragment, human, UniProt P42566-1 661-720, looked up)
chain: QSTDPFATSSTDPFSAANNSSITSVETLKHNDPFAPGGTVVAASDSATDPFASVFGNESF
notes: Eps15, human, residues 661-720; source: E. coli, purified in the same manner as for the SGIP1 μHD

- binding result (Eps15-530–896): binds
B4: SGIP1 μ homology domain (residues 552 to 828) (domain or fragment, human, UniProt Q9BQI5-1 552-828, looked up)
chain: LTMGAQDTLPVAAAFTETVNAYFKGADPSKCIVKITGEMVLSFPAGITRHFANNPSPAALTFRVINFSRLEHVLPNPQLLCCDNTQNDANTKEFWVNMPNLMTHLKKVSEQKPQATYYNVDMLKYQVSAQGIQSTPLNLAVNWRCEPSSTDLRIDYKYNTDAMTTAVALNNVQFLVPIDGGVTKLQAVLPPAVWNAEQQRILWKIPDISQKSENGGVGSLLARFQLSEGPSKPSPLVVQFTSEGSTLSGCDIELVGAGYRFSLIKKRFAAGKYLADN
notes: A SeMet-substituted form (E. coli B834(DE3)) was used only for the structure of the domain alone; also called SGIP1 μHD; μHD; source: E. coli BL21-Gold (DE3) or Rosetta2, purified (Glutathione Sepharose, 3C protease cleavage on the column, Superdex 200)
